{"source": "patent US20100034831A1", "about": "(DOMANTIS, published 2010)", "binders": {"B1": {"name": "TAR2m-21-23 (anti-TNFR1 dAb monomer) (other)", "VH": "EVQLLESGGGLVQPGGSLRLSCAASGFTFNRYSMGWLRQAPGKGLEWVSRIDSYGRGTYYEDPVKGRFSISRDNSKNTLYLQMNSLRAEDTAVYYCAKISQFGSNAFDYWGQGTQVTVSS"}, "B2": {"name": "PEG DOM1M (anti-TNFR1 dAb monomer TAR2m21-23 PEGylated with a 40 kDa polyethyleneglycol) (other)", "VH": "EVQLLESGGGLVQPGGSLRLSCAASGFTFNRYSMGWLRQAPGKGLEWVSRIDSYGRGTYYEDPVKGRFSISRDNSKNTLYLQMNSLRAEDTAVYYCAKISQFGSNAFDYWGQGTQVTVSS", "modifications": "PEGylated with a 40 kDa polyethyleneglycol (attachment site not stated)"}, "B3": {"name": "TAR2m-15-12 (anti-TNFR1 dAb) (other)", "chain": "DIQMTQSPSSLSASVGDRVTITCRASQYIHTSVQWYQQKPGKAPKLLIYGSSRLHSGVPSRFSGSGSGTDFTLTISSLQPEDFATYYCQQNHYSPFTYGQGTKVEIKR"}}, "target": "T1, mouse TNFR1 on L929 fibroblasts (mouse, UniProt P25118 30-454)", "T1 sequence (looked up)": "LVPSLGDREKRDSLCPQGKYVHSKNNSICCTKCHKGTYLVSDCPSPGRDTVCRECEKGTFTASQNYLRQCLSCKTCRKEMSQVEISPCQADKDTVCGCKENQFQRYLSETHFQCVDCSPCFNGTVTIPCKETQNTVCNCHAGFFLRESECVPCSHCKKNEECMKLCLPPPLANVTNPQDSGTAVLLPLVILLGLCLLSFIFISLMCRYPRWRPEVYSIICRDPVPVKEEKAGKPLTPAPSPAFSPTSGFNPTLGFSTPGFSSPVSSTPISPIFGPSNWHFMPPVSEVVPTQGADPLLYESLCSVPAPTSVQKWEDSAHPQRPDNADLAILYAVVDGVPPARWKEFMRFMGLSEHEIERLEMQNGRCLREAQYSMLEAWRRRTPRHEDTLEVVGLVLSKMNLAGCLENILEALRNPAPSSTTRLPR", "assay": "cell-based or functional assay", "data": [{"binder": "B1", "values": [{"measurement": "Potency, ND50 L929 assay", "result": 1, "unit": "nM"}]}, {"binder": "B2", "values": [{"measurement": "Potency, ND50 L929 assay", "result": 1, "unit": "nM"}]}, {"binder": "B3", "values": [{"measurement": "Potency, ND50 L929 assay", "result": 5, "unit": "nM"}]}]}
